Test results from US20190062438A1 (CSL, published 2019).
Changes are numbered by the printed parent chain.

Key:
[1] = biological target: T1, soluble Homo sapiens CD131 comprising a C-terminal 6xHis tag (human, UniProt P32927 17-438); assay: SPR, Fab over captured shCD131
T1 construct: truncated after Ser438, C-terminal 6xHis; also called shCD131; shβc
T1 sequence: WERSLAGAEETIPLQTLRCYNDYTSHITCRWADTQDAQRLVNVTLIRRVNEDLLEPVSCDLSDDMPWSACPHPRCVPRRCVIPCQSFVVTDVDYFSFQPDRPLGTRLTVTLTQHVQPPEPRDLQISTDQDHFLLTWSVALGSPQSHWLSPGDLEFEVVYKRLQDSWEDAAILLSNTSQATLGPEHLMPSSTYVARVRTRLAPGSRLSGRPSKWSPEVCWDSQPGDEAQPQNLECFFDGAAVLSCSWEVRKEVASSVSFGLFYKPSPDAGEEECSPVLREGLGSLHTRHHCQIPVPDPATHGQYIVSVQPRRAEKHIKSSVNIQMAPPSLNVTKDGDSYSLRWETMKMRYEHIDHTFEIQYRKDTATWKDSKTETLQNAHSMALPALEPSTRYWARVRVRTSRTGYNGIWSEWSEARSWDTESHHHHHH
Experimental: Binding kinetics were measured using SPR with a BIAcore™ A-100 instrument (GE Healthcare Life Sciences). An anti-C-terminal Hexa-His antibody (3H3) was immobilized on spots 1, 2, 4 and 5 of each flow cell of a CM-5 sensor chip (GE Healthcare Life Sciences) using amine-coupling chemistry (116). […] As shβc is a dimer, kinetics assays were performed with shβc captured on the sensor surface, and purified Fab injected as the analyte. Avidity effects were avoided by the use of Fab rather than whole IgG.
shCD131 was captured on spots 1 and 5 of each flow cell for 2 minutes at a concentration of 0.4 μg/ml. […] For some analysis purified Fab was injected over each flow cell for 3 minutes and dissociation was monitored for a further 10 minutes. Regeneration of the surface was performed after each cycle with a 40 second injection of 25 mM glycine, pH 2.0. The analysis was performed with Fabs at several concentrations between 100 and 0.31 nM, with each concentration analyzed twice and in random order. The analysis was performed at a flow rate of 30 μl/min in HBS-EP buffer (10 mM Hepes, 150 mM NaCl, 3 mM EDTA, 0.005% Tween 20, pH 7.4) at 37° C. Responses from spots 2 and 4 of each flow cell, (in which shβc was not captured, but otherwise treated identically), were subtracted from those of spots 1 and 5 respectively to produce reference subtracted data. Reference subtracted responses from a blank injection comprising buffer alone were subtracted from the resultant sensorgrams to produce double referenced data suitable for kinetic analysis. Double-referenced sensorgrams were fitted using non-linear regression to a model describing 1:1 kinetics, including a term for mass transport limitation. The Rₘₐₓ value was fitted locally to account for slight deviations in the level of sCD131 captured, with association rate (kₐ), dissociation rate (kd) and equilibrium dissociation constant (KD) fitted globally.

[2] = biological target: shCD131 alanine mutants of Ser102, Val104 and Arg364; assay: SPR, Fab over captured mutant
shCD131 N37A = biological target: T2, shCD131 N37A (human, UniProt P32927 17-438); assay: SPR, steady state, Fab over captured mutant
T2 construct: C-terminal 6xHis
T2 sequence: T1 sequence with N21A
Experimental: For some analysis purified Fab was injected over each flow cell for 3 minutes and dissociation was monitored for a further 10 minutes. Regeneration of the surface was performed after each cycle with a 40 second injection of 25 mM glycine, pH 2.0. The analysis was performed with Fabs at several concentrations between 100 and 0.31 nM, with each concentration analyzed twice and in random order. The analysis was performed at a flow rate of 30 μl/min in HBS-EP buffer (10 mM Hepes, 150 mM NaCl, 3 mM EDTA, 0.005% Tween 20, pH 7.4) at 37° C. Responses from spots 2 and 4 of each flow cell, (in which shβc was not captured, but otherwise treated identically), were subtracted from those of spots 1 and 5 respectively to produce reference subtracted data. Reference subtracted responses from a blank injection comprising buffer alone were subtracted from the resultant sensorgrams to produce double referenced data suitable for kinetic analysis. Double-referenced sensorgrams were fitted using non-linear regression to a model describing 1:1 kinetics, including a term for mass transport limitation. The Rₘₐₓ value was fitted locally to account for slight deviations in the level of sCD131 captured, with association rate (kₐ), dissociation rate (kd) and equilibrium dissociation constant (KD) fitted globally.
Mapping of the shCD131 epitope was performed by measurement of the affinity of Fabs for various alanine point mutants of shCD131 essentially as described above, with the following exceptions. Each shCD131 mutant was captured for 120 seconds at concentrations between 1 and 5 μg/ml. For kinetic analysis, purified recombinant Fabs were injected for 2 minutes, and dissociation was monitored for a further 2 minutes. […] Fab concentrations ranged from 16 μM to 3.9 nM in two-fold dilutions. The assays were conducted at 25° C. All sensorgrams were reference subtracted as described above. For determination of steady-state affinity (KD only), the response at the end of the binding phase was used to fit the data to a single-site binding model. Kinetic parameters were determined as described above.

[3] = biological target: T1, soluble Homo sapiens CD131 comprising a …; assay: SPR, kinetics, Fab over captured shCD131

Kd [1]: 49 nM
koff [1]: 0.096 s⁻¹
kon [1]: 2e+06 M⁻¹ s⁻¹
fold reduction of binding relative to WT shCD131 [2]: 3 to 7 fold
Kd (shCD131 N37A): 620 nM
Kd [3]: 49 nM
B1: 9A2 Fab (Fab, V domains shown)
VH: EVQLLESGGGLVQPGGSLRLSCAASGFTFSHYHMLWVRQAPGKGLEWVSSIRSSGGFTYYADSVKGRFTISRDNSKNTLYLQMNSLRAEDTAVYYCARFYDSFFDIWGQGTMVTVSS
VL: DIQMTQSPSSVSASVGDRVTITCRASQGISSWLAWYQQKPGKAPKLLIYAASSLQSGVPSRFSGSGSGTDFTLTISSLQPEDFATYYCQQANSFPITFGQGTRLEIKR
notes: also called recombinant Fab of 9A2
